Where “and” joins values, the source holds several entries; their conditions need not be identical. Identical values can stand only once.
Molecular target: RVC20 (mature), recombinant human IgG1 (human)
Assay: BLI

Sequence of RVC20 (mature), recombinant human IgG1 (human) (heavy, as listed by the source, chain 1 of 2): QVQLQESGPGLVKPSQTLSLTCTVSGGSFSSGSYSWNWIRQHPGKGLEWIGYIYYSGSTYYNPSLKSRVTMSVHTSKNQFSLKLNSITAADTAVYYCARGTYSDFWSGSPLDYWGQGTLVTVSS
Sequence of RVC20 (mature), recombinant human IgG1 (human) (light, as listed by the source, chain 2 of 2): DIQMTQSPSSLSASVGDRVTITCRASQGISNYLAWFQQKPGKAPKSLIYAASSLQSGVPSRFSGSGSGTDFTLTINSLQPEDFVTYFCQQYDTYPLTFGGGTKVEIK

Substance: RABV G domain III (E31-V56 and N182-D262 joined by three glycines), strain 9147FRA (domain or fragment)
- Kd: 7.95 nM and 11.3 nM and 12.2 nM
